test: soluble on expression in E. coli; label from the status in PepcDB or PDB records

Which “soluble on expression in E. coli” value does the source give for “MGSDKIHHHHHHMKLAKKYYAVRKGRVPGIYKTWKEAEEQVKGFPGAEYKSFERLEDAKAYMEGKNECICPELDTETMIAYVDGSYDEVCGSGIVLCYRGKKEEYYFWTNIEEFKDSRNITGEIMAALFAMDYALKKGARKLVLRYDLEGLEKWATEEYRTNKLVTKVYRHYYRKFCQMGLKVVFEKIKSHSGNFCNDEADSLAKKASKKESNVEWMPEDFESIIRTLTKKGGCL” here?
The value was “not soluble”.

For “MGSDKIHHHHHHMKLCSVTKIWDKSAHNAFTDLALYRGKLYCVFREASAHVSPDGALRILCTDNDGQDWHSVALIEADFADLRDGKLVIEGDSLFLFGGAAMHEGKGEGMRSYCWQSDDGIHWSAPRALVKEREWLWRITPHKGYFYGIAYYCHEHDGYAALYKSDANTDFYPLVEKLSQAGYVNESGLVFDEEDKAICLLRRDPLWLTDERALLGESAPPYTQWHWQTANCRVGGPVTFLYQGQLYGVVRLYDGRVRTALVAIDRQSAQIAELLTLPSGGDTSYAGVVLSDNILMVSYYSSHEGDCAIYFAKIAL”, which “soluble on expression in E. coli” value is on record?
The value was “not soluble”.

Which “soluble on expression in E. coli” value does the source give for “MGSDKIHHHHHHMKLETIDYRAADSAKRFVESLRETGFGVLSNHPIDKELVERIYTEWQAFFNSEAKNEFMFNRETHDGFFPASISETAKGHTVKDIKEYYHVYPWGRIPDSLRANILAYYEKANTLASELLEWIETYSPDEIKAKFSIPLPEMIANSHKTLLRILHYPPMTGDEEMGAIRAAAHEDINLITVLPTANEPGLQVKAKDGSWLDVPSDFGNIIINIGDMLQEASDGYFPSTSHRVINPEGTDKTKSRISLPLFLHPHPSVVLSERYTADSYLMERLRELGVL” here?
Its value is “not soluble”.

With “MGSDKIHHHHHHMKLIDLHVHSYHSDGVLAPAVLVAMAAERGLASLAIADHDAVDGIDEAVAEGVRLGVDVIPAVELSVELGRFSDLHILGYCIDHHDPAFRDKLAGFRSARDNRGKAILEKINRRLLHSRKAPLSYDEVLSMAGGAVGRPHIGRVLVDNGYARDMEDAFRRYLIPCNVPKRYMPAGEAIAEIRRIGGVSVLAHPPTITDDRRRLRQVVEQLAQLGLDGLEVFNNLCFKDDMLYLERLAEEFGLLMTGGSDFHGFEDDVELGRGRGGLAVAHSLAEKVKELAAQRKHSHA” as the sequence, how does the “soluble on expression in E. coli” value read?
Its value is “not soluble”.

With “MGSDKIHHHHHHMKLNFTGHTDPGLIRSNNQDDYYIDPEGRFFIVADGMGGHAGGEEASRIATREIKAYLTANWDVSKPSSELLEQALWQANEAILQDQQNHPERADMGTTAVVVIFRNDEQWCAHVGDSRLYRLRETQLEQVTEDHTWVARAIKIGDITAEEARVHPFRHVLSRCLGREDLHQVDVQPLDTKIGDRLLLCSDGLTEELPDQKIAHNLQINSLLDQSALSLVEDAKEQGGHDNITVVIVALE” as the sequence, how does the “soluble on expression in E. coli” value read?
Its value is “not soluble”.

With “MGSDKIHHHHHHMKMLVGKIPSELLAKILEKLKPGDKVIVGPKVGIDATAIDFGDYVLVASTDPITGTEEKIGFYAVNINANDVATFGARPKWFLVTILLPEGSEFNDVITIMDEVREVAEGMGISIVGGHTEVTPGLKKPIVVGTMLGEVEKENLVVPNPRPGDAIILTKGAGIEGTSIIAHEREEELKGVFGSNFVERAKAFINEISIVREALLSREFATAMHDPTEGGIANGLHEMADINGLGFRIFANKVIIREETRKICHFYDLDPLALISSGALLISTPRDHAKFLIERLLSHGIQASIIGEFLAEKKRVIIENGAERPLKRPESDELWKVV” as the sequence, how does the “soluble on expression in E. coli” value read?
The value was “not soluble”.

Which “soluble on expression in E. coli” value does the source give for “MGSDKIHHHHHHMKNAMLVLCVFLGLSACADRDLMPIVPEAVEIGTPYTVFSTTTRAQEADGTYGFRRSEQLRMMEMTVTIPPNHSPGELSYRYKNPDPHKNFAIAEELPVASVSDLRARFLREQRENNWPLREVTIFVHGYNSTHPETAYRSAQMAHDVELPGSLVMYSWPSRGRAFGYAYDIDSMLFARDGLEETVRRVKQAGAERIILVAHSMGTALAMEMLRQADLRNPGWAARTLNGGVILISPDLDVDVFESQMMDLKQVPQPFGVMVSEKDHILNISGRLRGTSEGERLGNIKSAERLMKWPIEVIDLTAFNADAASGHFVAATSPSLLAVIRSASNVSRLFGPVDPTLFQQILPQSQTIVTDHGKLMLARQQRQEER” here?
The value was “not soluble”.

Which “soluble on expression in E. coli” value does the source give for “MGSDKIHHHHHHMKNRKTPMKEQSPESRRRNFEEVALGYTLEEALEEAQRCLQCPTHPCVSGCPVEIDIPGFIRKLRDGKLEESYRILKSYNNLPAVCGRVCPQEVQCESRCVVGKMKDSEPVAIGRLERFVADWAAENLEEDVKPLAGSKKEKVAVVGSGPAGLTAAADLAKMGYHVDIFEAFHKPGGVLVYGIPEFRLPKRIVEREVSYIRKLGVNFHLNTVVGKTVKVKELLSEYDAVFIGTGAGTPKFMGIPGTNLNGVYSANEFLTRVNLMKAYLFPEYDTPIRVGKKVAVIGAGNTAMDAARSALRLGAEKVYIVYRRTEREMPARREEYHHALEEGIEFLWLTLPIRYIGDANGNVEAMECVRMELKEADGSGRPRPVPIEGSNFVLEVDMVIEAIGQGPNRVLLSEFPGLELNERGYIKADEDTGATSVKGVFAGGDIVTGAATVIKAMGAGKKAAQFIHSYLTGEWNPWQK” here?
The value was “not soluble”.

Which “soluble on expression in E. coli” value does the source give for “MGSDKIHHHHHHMKNTTLSSRKHRSLETKKKLLHSGYIVFINNGFQKTTITQIIKHAETGYGTAYVYFKNKDDLLTVLMEDVMNQFYDIAERSFSPQTKEEARNMIQNQVRAFLQLAEKERAILQVVEEAIGLSKEIRQKWDEIRERFINSITQDITYSQENGLAHPELNKETVARAWFAMNEIFLWTIVKNDKKLELEEIVHTLTEMYTTGLYK” here?
The value was “not soluble”.

With “MGSDKIHHHHHHMKPEAYPHPVKVVELVETHISWVLLTGSYAYKLKKAVHLDFVDATTLKQRLHFCQEELRLNRRLAPDLYLGVTRILESVDGAKVLDENFELNDPSTKGVVDVAVKMRQFPVSRLLSVYLSDGVLKTESLKRLAFELAGFHLSVKTASADGDFGGFDAVINPVHANLRVLDQLTLTEPLELWLEEHRAWIKSIQPELAFRFKQRLNAGAIRECHGDLHVGNIHLNNDESLEVFDAIDFNPSLRWIDPISEMAFLVMDFEVHDHQGDAMVILNEWLEHTGDYKALDLWPWYSAYRALVRAKVSGLQWQQLCSQSQHHSVDQQHLQRLLKDLNLYIQRAREVQQTKSAGIVLMHGLSGSGKSFLSEQLYQQLPAVRLRSDIERQRAFGRRPLHKLLGFEKGSMTSVGIKPLFQGDPYRPEVTQWLFDQCLPALTQSCLSSGYTTIVDATFLRERERQRMFVLARQQGCPIAIVACECSDFTAQERIATRMGIGTDPSEADLSVRELQKAWIEPLTTDEQDLTVRFTEKTPISIGLERLRVLLNP” as the sequence, how does the “soluble on expression in E. coli” value read?
The value was “not soluble”.

With “MGSDKIHHHHHHMKQIPLAERMRPKTLADYVGQQHLIGSGAVLRQMIEQGQTPSMILWGPPGVGKTTLAEIIAHEVDAPFYTLSAVSSGVKEVREVIADIESNRGNLFDKGGRAILFIDEIHRFSKSQQDSLLAAVERGIVTLIGATTENPSFEVIRPLLSRCQVYVLKPQSDEDLLLLAHRAIDRDELLAAKHPVLEETEALLLYAGGDARKLLNILDLLATSEVEDRLVITNEKIRQRLQENPAAFDKGGELHYDIASAFIKSIRGSDPDAAIYWLARLIDGGEEPSFIARRLIISASEDIGLANPNAMLIAMACAEALDRIGWPEGRIPLAEATIYLATSEKSNSAYLAIDSALEYVRQSGNLPVPLHLRNAPTRLMADLDYGKGYKYSHDFPEHFVSQQYLPDKAANTSFWTPQMHTVHEAKLGERMKRWWKREKSQKDTAE” as the sequence, how does the “soluble on expression in E. coli” value read?
Its value is “not soluble”.

For “MGSDKIHHHHHHMKQLFDNVSAMCSKLTTKKYSTSFSLGIHFLHKKLHDPVYAIYGFVRFADEIVDSFHGYDKKRLMAQFRRDTAFALQDKISLNPILNSFQHVVHTYNIEWELIDTFLKSMEMDLDQSAHNEQSYKEYIIGSAEVVGLMCLRVFVKGDVDMYEKQKPHAMSLGAAFQKVNFLRDAKEDFDSLGRTYFPDVSMEKFDRHIKQNIESDIEKDFQHALIGIKQLPAESRLGVYLAYIYYKNLFHKIKSIPPERMLKERIRIPNLNKFALLFQCYFRNQFNIL”, which “soluble on expression in E. coli” value is on record?
The value was “not soluble”.

For “MGSDKIHHHHHHMKRKTKLDKKSKWVLDMKFGVSSLVFLPESLTSSMEKIAEHNFDAWEIVCEGTHYLSPKNIKYLMELRDRYEVEIVVHAPFSDLNPASMNERVRKLTVECIRDAIEGAFELDSEVVVVHPGYIPELWSNYVSEILDNNFSTLSEIVEIAEDYGIKIGLENMPNFRGVLGITPESLLEIVKDIDSKNLGITFDIGHANTAGNPAEFVEKLQNIGIGIIHVHAHDNNGYDDEHLKIGEGNINFIEVLEKLKEIGYDGVISIENKNIRDAVKSKEILKEYLEIVNEKVAEKEKIEE”, which “soluble on expression in E. coli” value is on record?
Its value is “not soluble”.

For “MGSDKIHHHHHHMKSLGRHLVAEFYECDREVLDNVQLIEQEMKQAAYESGATIVTSTFHRFLPYGVSGVVVISESHLTIHTWPEYGYAAIDLFTCGEDVDPWKAFEHLKKALKAKRVHVVEHERGRYDEIGIPEDSPHKAAV”, which “soluble on expression in E. coli” value is on record?
Its value is “soluble”.

Which “soluble on expression in E. coli” value does the source give for “MGSDKIHHHHHHMKTEIVEIESECLKDNFLKDDWKRQILVYRPDDAEGGLPLFIELAGTNWRPRTHNKFSLIIEKLFSSGLKAVVLNPNFSTRYNMNQYLNSPAVGSYEDFIVKELIPYFKDKYGTDHTALFGKSSGGFGSYTLAARHPDIIDGFADHFGDSCFFYLYADDMAAAFRYIQRHGKSESVKMLTSHMPSDDEMKVLNVIGSSAFYSPDMNDVNGFDLPFDEDTGELIEDVWQRWVQFDPAKNVLKYSGALKKMKAIYLDVGTNDEYKLYIGTRALHKKLGLANIDHYYEEFNGGHFGNSERYLYSLPFLYRKLNDTA” here?
The value was “not soluble”.

With “MGSDKIHHHHHHMKTERILGALYGQALGDAMGMPSELWPRSRVKAHFGWIDRFLPGPKENNAACYFNRAEFTDDTSMALCLADALLEREGKIDPDLIGRNILDWALRFDAFNKNVLGPTSKIALNAIRDGKPVAELENNGVTNGAAMRVSPLGCLLPARDVDSFIDDVALASSPTHKSDLAVAGAVVIAWAISRAIDGESWSAIVDSLPSIARHAQQKRITTFSASLAARLEIALKIVRNADGTESASEQLYQVVGAGTSTIESVPCAIALVELAQTDPNRCAVLCANLGGDTDTIGAMATAICGALHGVNAIDPALKAELDAVNQLDFNRYATALAKYRQQREAV” as the sequence, how does the “soluble on expression in E. coli” value read?
Its value is “not soluble”.

Which “soluble on expression in E. coli” value does the source give for “MGSDKIHHHHHHMKTLAQNIQEKLKASGLTQKELAERANISQVMVHKLISGKAKESSKLVAIAGVLGCTAEELMYGLEKHVPTSNAEWAGPMETWDSNTPLNDDEVEIPFYMEVELAAGHGIAEASEYHGPKLRFAKSTLRKSSVDPTNAACVRVSGNSMEPVLPSGSTVGVDTSQTDVIDGKMYAINHDGMLRVKTLYKLPGGGLRLRSYNIDEWPDERYEGEAIKQIKIIGKVFWYSVLM” here?
Its value is “not soluble”.

Which “soluble on expression in E. coli” value does the source give for “MGSDKIHHHHHHMKVCILGATGRVGSNIIKLALKDSVEVTALARDSSRVEINHERLRVIEGNVLNENDIKKAIEGSDIVISALGTDQNGTLAKSMPQIIKKMEEEGVRKIITIGTAGILQARTNLNLYRFQSTESKRKSTTAAEEHLAAYKILSSSNLCWTVVCPTHLIDGDVTGIYRTEKDVLPEGGAKITVGDTAQFTWNLCSKNKYENSRVGISY” here?
The value was “not soluble”.

For “MGSDKIHHHHHHMKVDWDHLQFFLVLARTKTLTNAARIIGVEHSTVARRIQALELALGTTLFKREATGYELTLEGMALVPRVEQMEQAFLQIEKPHQPLQGRVRIGTPEGFGTAFLARLLAEFSIQYPLLTIDLIPVPKMIKLSHREADIVVSIERPTSGPYIITRLSDYCLKIYGSQNYLAQNPPIRRLEDLTQHRFVNYIDDLVYSPELYCLERLPLKLNANFRSSSILAQQIAVSAGAGLAILPKFLADDKPELEEVLEQQVRFTHTFWMLTFVDLQHEPRIKLVWDYLRKQADKYQHLLVD”, which “soluble on expression in E. coli” value is on record?
Its value is “not soluble”.

From the DeepSol protein solubility set
